# Results reported in article PMC3418248 (2012).
# B1: SepF [B. subtilis] / Halo-ZC (HaloTag fused to the final 69 amino acids of B. subtilis FtsZ) [B. subtilis] (parent complex)
# chain 1: MSMKNKLKNFFSMEDEEYEYEYIETERESHEEHEQKEKPAYNGNKPAGKQNVVSLQSVQKSSKVVLSEPRVYAEAQEIADHLKNRRAVVVNLQRIQHDQAKRIVDFLSGTVYAIGGDIQRIGSDIFLCTPDNVDVSGTISELISEDEHQRW
# chain 2: GFIEQEKDVTKPQRPSLNQSIKTHNQSVPKREPKREEPQQQNTVSRHTSQPADDTLDIPTFLRNRNKRG
# Variants of: B1
# Test: pull-down (HaloTag bait), densitometric scanning of Coomassie-stained gels; read off a plot
row,screen value,Variant
1,~0.35,chain 2 I58A
2,~0.83,chain 2 T55A
3,~0.74,chain 2 N66A
4,~0.66,chain 2 T60A
5,~0.46,chain 2 R68A
6,~0.69,chain 2 G69A
7,~0.9,chain 2 D54A
8,~0.42,chain 2 R65A
9,~0.04,chain 2 P59A
10,~0.03,chain 2 F61A
11,~0.51,chain 2 K67A
12,~0.53,chain 2 D57A
